Results taken from PMC3772951 (PLoS ONE, 2013).

Assays:
[1] = target: T1, B subunit of Enterococcus hirae V-ATPase, wild type (Enterococcus hirae, UniProt Q08637 1-458); experiment: native gel or EMSA; purified A3B3 and DF complexes mixed in a 1:5 molar ratio, 1 h on ice; formation of A3B3DF (V1) confirmed by basic native-PAGE; settings: both partners purified
T1 construct: B subunit of Enterococcus hirae V-ATPase; synthetic gene with E. coli codon usage in pET23d; also called B monomer; source: E. coli BL21 (DE3), purified
T1 sequence (looked up): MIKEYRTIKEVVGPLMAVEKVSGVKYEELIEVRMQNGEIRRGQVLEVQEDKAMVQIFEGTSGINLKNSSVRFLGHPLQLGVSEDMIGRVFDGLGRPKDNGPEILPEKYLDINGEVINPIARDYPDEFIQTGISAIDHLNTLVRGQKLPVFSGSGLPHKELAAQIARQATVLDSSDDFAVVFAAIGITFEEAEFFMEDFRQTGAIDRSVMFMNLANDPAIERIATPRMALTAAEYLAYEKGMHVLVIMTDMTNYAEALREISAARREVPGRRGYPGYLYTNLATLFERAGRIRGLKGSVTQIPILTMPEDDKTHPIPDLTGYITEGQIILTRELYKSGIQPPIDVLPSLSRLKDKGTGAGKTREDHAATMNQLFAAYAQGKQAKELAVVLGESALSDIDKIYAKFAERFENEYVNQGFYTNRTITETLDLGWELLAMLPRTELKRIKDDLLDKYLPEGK

[2] = target: T2, A subunit of Enterococcus hirae V-ATPase, wild type (Enterococcus hirae, UniProt Q08636 1-593); experiment: as above; settings: both partners purified
T2 construct: A subunit of Enterococcus hirae V-ATPase; synthetic gene with E. coli codon usage in pET23d; also called A monomer; source: E. coli BL21 (DE3), purified
T2 sequence (looked up): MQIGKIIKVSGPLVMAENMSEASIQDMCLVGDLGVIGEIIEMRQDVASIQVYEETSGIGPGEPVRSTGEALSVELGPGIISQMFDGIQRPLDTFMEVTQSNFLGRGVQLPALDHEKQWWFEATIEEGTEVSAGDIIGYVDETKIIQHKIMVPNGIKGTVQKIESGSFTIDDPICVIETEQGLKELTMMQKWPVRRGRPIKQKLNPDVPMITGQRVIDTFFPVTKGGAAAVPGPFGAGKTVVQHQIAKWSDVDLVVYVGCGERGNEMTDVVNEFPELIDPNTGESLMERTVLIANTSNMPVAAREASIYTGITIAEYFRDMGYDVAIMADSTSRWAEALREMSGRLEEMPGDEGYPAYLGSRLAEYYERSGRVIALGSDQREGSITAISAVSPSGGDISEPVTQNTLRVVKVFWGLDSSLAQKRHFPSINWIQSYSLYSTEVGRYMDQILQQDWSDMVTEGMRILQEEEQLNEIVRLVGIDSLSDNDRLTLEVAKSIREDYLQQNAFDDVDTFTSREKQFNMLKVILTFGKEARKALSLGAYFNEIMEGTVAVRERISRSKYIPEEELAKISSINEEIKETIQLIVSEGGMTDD

B1: D subunit of Enterococcus hirae V-ATPase, wild type (natural protein, UniProt P43435 1-210, looked up)
chain: MRLNVNPTRMELTRLKKQLTTATRGHKLLKDKQDELMRQFILLIRKNNELRQAIEKETQTAMKDFVLAKSTVEEAFIDELLALPAENVSISVVEKNIMSVKVPLMNFQYDETLNETPLEYGYLHSNAELDRSIDGFTQLLPKLLKLAEVEKTCQLMAEEIEKTRRRVNALEYMTIPQLEETIYYIKMKLEENERAEVTRLIKVKNMGTEE
notes: D subunit of Enterococcus hirae V-ATPase; Was never handled alone; stands here for the pairs of subunits inside the DF and A3B3DF complexes; source: E. coli cell-free protein expression system, synthesized together with F, purified
B1: binds [1]; binds [2].
